Assay [1] addresses polypeptide molecule 8 (human) (UniProt P05186). Put plainly: sandwich ELISA, ALP-labeled anti-TNAP detection; calibrator C2 (35 ug/mL), run 1. A general note: In an ELISA, binding on a coated surface is turned into a signal by an enzyme label.
For assay [2] the target is unchanged. As to the kind of experiment: sandwich ELISA, ALP-labeled anti-TNAP detection; calibrator C2 (35 ug/mL), run 2.
Assay [3] shares this target. As to the kind of experiment: sandwich ELISA, ALP-labeled anti-TNAP detection; calibrator C2 (35 ug/mL), run 3.
For assay [4] the target is unchanged. As to the kind of experiment: sandwich ELISA, ALP-labeled anti-TNAP detection; calibrator C3 (70 ug/mL), run 1.
For assay [5] the target is unchanged. As to the kind of experiment: sandwich ELISA, ALP-labeled anti-TNAP detection; calibrator C3 (70 ug/mL), run 2.
Assay [6] shares this target. Put plainly: sandwich ELISA, ALP-labeled anti-TNAP detection; calibrator C3 (70 ug/mL), run 3.
For assay [7] the target is unchanged. As to the kind of experiment: sandwich ELISA, ALP-labeled anti-TNAP detection; calibrator C4 (140 ug/mL), run 1.
Assay [8] shares this target. Put plainly: sandwich ELISA, ALP-labeled anti-TNAP detection; calibrator C4 (140 ug/mL), run 2.
Assay [9] shares this target. As to the kind of experiment: sandwich ELISA, ALP-labeled anti-TNAP detection; calibrator C4 (140 ug/mL), run 3.
For assay [10] the target is unchanged. As to the kind of experiment: sandwich ELISA, ALP-labeled anti-TNAP detection; calibrator C5 (280 ug/mL), run 1.
The target is the same in assay [11]. As to the kind of experiment: sandwich ELISA, ALP-labeled anti-TNAP detection; calibrator C5 (280 ug/mL), run 2.
Assay [12] shares this target. Put plainly: sandwich ELISA, ALP-labeled anti-TNAP detection; calibrator C5 (280 ug/mL), run 3.
Assay [13] has the same target. As to the kind of experiment: sandwich ELISA, ALP-labeled anti-TNAP detection; calibrator C1 (17.5 ug/mL), run 1.
For assay [14] the target is unchanged. Put plainly: sandwich ELISA, ALP-labeled anti-TNAP detection; calibrator C1 (17.5 ug/mL), run 2.
Assay [15] has the same target. Put plainly: sandwich ELISA, ALP-labeled anti-TNAP detection; calibrator C1 (17.5 ug/mL), run 3.
For assay [16] the target is unchanged. As to the kind of experiment: sandwich ELISA, ALP-labeled anti-TNAP detection; calibrator C2 (35 ug/mL), mean of 3.
Assay [17] has the same target. Put plainly: sandwich ELISA, ALP-labeled anti-TNAP detection; calibrator C3 (70 ug/mL), mean of 3.
For assay [18] the target is unchanged. As to the kind of experiment: sandwich ELISA, ALP-labeled anti-TNAP detection; calibrator C4 (140 ug/mL), mean of 3.
Assay [19] has the same target. As to the kind of experiment: sandwich ELISA, ALP-labeled anti-TNAP detection; calibrator C5 (280 ug/mL), mean of 3.
For assay [20] the target is unchanged. Put plainly: sandwich ELISA, ALP-labeled anti-TNAP detection; calibrator C1 (17.5 ug/mL), mean of 3.
Assay [21] has as its target polypeptide molecule 7 (bovine) (UniProt P19111). Put plainly: HI-1000 capture immunoassay, ALP chemiluminescence; calibrator C4 (2.562222 ug/mL), run 1.
UniProt P19111, sequence (P19111 other isoform, or with tags, fused parts or gaps limits assumed): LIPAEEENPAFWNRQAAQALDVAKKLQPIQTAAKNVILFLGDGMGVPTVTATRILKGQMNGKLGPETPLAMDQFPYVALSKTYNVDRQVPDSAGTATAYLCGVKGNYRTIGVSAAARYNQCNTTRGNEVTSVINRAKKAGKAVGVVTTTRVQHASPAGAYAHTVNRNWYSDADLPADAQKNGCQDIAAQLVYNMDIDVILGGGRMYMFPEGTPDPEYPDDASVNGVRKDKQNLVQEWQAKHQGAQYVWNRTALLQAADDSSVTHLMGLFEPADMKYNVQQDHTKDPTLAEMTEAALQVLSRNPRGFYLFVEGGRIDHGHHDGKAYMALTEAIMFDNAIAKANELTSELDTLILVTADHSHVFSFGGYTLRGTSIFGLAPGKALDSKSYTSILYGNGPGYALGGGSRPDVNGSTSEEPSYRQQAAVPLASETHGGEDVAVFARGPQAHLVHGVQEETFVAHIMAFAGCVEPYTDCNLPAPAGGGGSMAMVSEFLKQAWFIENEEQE
The target is the same in assay [22]. Put plainly: HI-1000 capture immunoassay, ALP chemiluminescence; calibrator C4 (2.562222 ug/mL), run 2.
Assay [23] has the same target. As to the kind of experiment: HI-1000 capture immunoassay, ALP chemiluminescence; calibrator C4 (2.562222 ug/mL), run 3.
Assay [24] has the same target. As to the kind of experiment: HI-1000 capture immunoassay, ALP chemiluminescence; calibrator C5 (7.686667 ug/mL), run 1.
For assay [25] the target is unchanged. Put plainly: HI-1000 capture immunoassay, ALP chemiluminescence; calibrator C5 (7.686667 ug/mL), run 2.
For assay [26] the target is unchanged. As to the kind of experiment: HI-1000 capture immunoassay, ALP chemiluminescence; calibrator C5 (7.686667 ug/mL), run 3.
For assay [27] the target is unchanged. As to the kind of experiment: HI-1000 capture immunoassay, ALP chemiluminescence; calibrator C1 (0.0177932 ug/mL), run 1.
For assay [28] the target is unchanged. As to the kind of experiment: HI-1000 capture immunoassay, ALP chemiluminescence; calibrator C1 (0.0177932 ug/mL), run 2.
The target is the same in assay [29]. As to the kind of experiment: HI-1000 capture immunoassay, ALP chemiluminescence; calibrator C1 (0.0177932 ug/mL), run 3.
Assay [30] shares this target. As to the kind of experiment: HI-1000 capture immunoassay, ALP chemiluminescence; calibrator C2 (0.0711728 ug/mL), run 1.
For assay [31] the target is unchanged. As to the kind of experiment: HI-1000 capture immunoassay, ALP chemiluminescence; calibrator C2 (0.0711728 ug/mL), run 2.
Assay [32] has the same target. Put plainly: HI-1000 capture immunoassay, ALP chemiluminescence; calibrator C2 (0.0711728 ug/mL), run 3.
Assay [33] shares this target. As to the kind of experiment: HI-1000 capture immunoassay, ALP chemiluminescence; calibrator C3 (0.2846914 ug/mL), run 1.
For assay [34] the target is unchanged. Put plainly: HI-1000 capture immunoassay, ALP chemiluminescence; calibrator C3 (0.2846914 ug/mL), run 2.
Assay [35] has the same target. Put plainly: HI-1000 capture immunoassay, ALP chemiluminescence; calibrator C3 (0.2846914 ug/mL), run 3.
Assay [36] has the same target. Put plainly: HI-1000 capture immunoassay, ALP chemiluminescence; calibrator C4 (2.562222 ug/mL), mean of 3.
The target is the same in assay [37]. Put plainly: HI-1000 capture immunoassay, ALP chemiluminescence; calibrator C5 (7.686667 ug/mL), mean of 3.
Assay [38] shares this target. As to the kind of experiment: HI-1000 capture immunoassay, ALP chemiluminescence; calibrator C1 (0.0177932 ug/mL), mean of 3.
Assay [39] has the same target. As to the kind of experiment: HI-1000 capture immunoassay, ALP chemiluminescence; calibrator C2 (0.0711728 ug/mL), mean of 3.
Assay [40] has the same target. Put plainly: HI-1000 capture immunoassay, ALP chemiluminescence; calibrator C3 (0.2846914 ug/mL), mean of 3.

UniProt P05186, sequence (P05186 other isoform, or with tags, fused parts or gaps limits assumed): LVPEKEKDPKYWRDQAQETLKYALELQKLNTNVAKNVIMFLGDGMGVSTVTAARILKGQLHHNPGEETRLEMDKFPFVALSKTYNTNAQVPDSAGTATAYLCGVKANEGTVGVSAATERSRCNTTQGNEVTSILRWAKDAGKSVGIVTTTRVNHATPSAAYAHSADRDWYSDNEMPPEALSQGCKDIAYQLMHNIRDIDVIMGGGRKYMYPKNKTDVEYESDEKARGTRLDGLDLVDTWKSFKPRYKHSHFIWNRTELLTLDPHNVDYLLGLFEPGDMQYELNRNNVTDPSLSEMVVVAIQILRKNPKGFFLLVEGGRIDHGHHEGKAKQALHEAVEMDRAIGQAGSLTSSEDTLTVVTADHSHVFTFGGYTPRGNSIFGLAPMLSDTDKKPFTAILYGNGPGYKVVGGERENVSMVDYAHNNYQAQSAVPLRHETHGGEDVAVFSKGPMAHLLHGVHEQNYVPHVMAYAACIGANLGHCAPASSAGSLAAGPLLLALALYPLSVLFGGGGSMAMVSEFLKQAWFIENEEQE

Regarding “anti-Annexin A1 antibody (Santacruz, sc-12740)”, the relative emission intensity (RLU) in assay [1] turned out to be 21600 RLU; in assay [2], 21700 RLU; in [3] it was 25000 RLU; in assay [4], 31900 RLU; in assay [5], 33200 RLU; in assay [6], 32100 RLU. In addition, the relative emission intensity (RLU) was 50900 RLU in [7]; 51900 RLU in assay [8]; 50900 RLU in assay [9]; 89000 RLU in [10]; 86100 RLU in assay [11]; 87800 RLU in assay [12]. Further, the relative emission intensity (RLU) in assay [13] worked out at 16500 RLU; in [14] it was 16400 RLU; in assay [15] it was 17000 RLU. The relative emission intensity (RLU), AV in [16] was determined as 22800 RLU; in [17] it was 32400 RLU; in [18], 51200 RLU; in assay [19] it was 87600 RLU; in assay [20], 16700 RLU.
With “biotin-labeled anti-Annexin A1 antibody (Clone: EH17a)”, the emission intensity (count) in assay [21] came out at 266000 count; in [22], 260000 count; in [23] it was 271000 count; in assay [24], 439000 count; in assay [25], 460000 count; in assay [26], 452000 count. Moreover, the emission intensity (count) stood at 3800 count in assay [27]; 3650 count in [28]; 3650 count in [29]; 13000 count in assay [30]; 13100 count in [31]; 13000 count in assay [32]. Also, the values for the emission intensity (count) in assay [33], in [34] and in assay [35] were 47000 count, 46800 count and 45800 count, respectively. Also, the emission intensity (count), AV turned out to be 266000 count in assay [36]; 450000 count in assay [37]; 3700 count in assay [38]; 13000 count in assay [39]; 46600 count in assay [40].

Source of the values: patent US20250298024A1.
